Source: article PMC12412624, “Engineered Cas12j‐8 is a Versatile Platform for Multiplexed Genome Modulation in Mammalian Cells”
Where a chain is given by its changes, count along the chain named.

Key:
[1] = test system: T1, dCas12j-8 E258R+E157R E258R;E157R;D369A;E567A;D658A (bacteriophage (metagenome)); details: HEK293T cells; panel 1d (compare within a panel only); scale: mean GFP / mean GFP of wild type, printed, no background subtraction
T1 sequence: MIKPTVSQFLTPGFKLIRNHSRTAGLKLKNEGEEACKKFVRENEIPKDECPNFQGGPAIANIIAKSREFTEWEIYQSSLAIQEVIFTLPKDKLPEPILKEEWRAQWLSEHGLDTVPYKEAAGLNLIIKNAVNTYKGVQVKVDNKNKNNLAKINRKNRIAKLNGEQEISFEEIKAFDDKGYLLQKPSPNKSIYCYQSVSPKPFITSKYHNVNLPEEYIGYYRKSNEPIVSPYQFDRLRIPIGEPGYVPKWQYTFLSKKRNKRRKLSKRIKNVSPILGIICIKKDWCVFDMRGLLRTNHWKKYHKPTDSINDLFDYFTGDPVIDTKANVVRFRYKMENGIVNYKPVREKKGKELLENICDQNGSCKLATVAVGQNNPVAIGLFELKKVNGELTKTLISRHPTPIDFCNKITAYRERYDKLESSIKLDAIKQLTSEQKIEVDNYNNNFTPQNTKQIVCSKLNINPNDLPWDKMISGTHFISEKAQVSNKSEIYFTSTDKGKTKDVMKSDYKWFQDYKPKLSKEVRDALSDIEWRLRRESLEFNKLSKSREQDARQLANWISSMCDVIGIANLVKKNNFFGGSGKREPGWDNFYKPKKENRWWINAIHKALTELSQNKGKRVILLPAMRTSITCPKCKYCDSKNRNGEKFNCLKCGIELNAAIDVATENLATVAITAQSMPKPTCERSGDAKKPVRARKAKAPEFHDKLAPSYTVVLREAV

[2] = test system: T2, dCas12j-8 E258R+D527R E258R;D527R;D369A;E567A;D658A (bacteriophage (metagenome)); details: HEK293T cells; panel 1d (compare within a panel only); scale: mean GFP / mean GFP of wild type, printed, no background subtraction
T2 sequence: T1 sequence with R157E, D527R

[3] = test system: T3, dCas12j-8 D527R D527R;D369A;E567A;D658A (bacteriophage (metagenome)); details: HEK293T cells; panel 1c (compare within a panel only); scale: mean GFP / mean GFP of wild type, printed, no background subtraction
T3 sequence: T1 sequence with R157E, R258E, D527R

[4] = test system: T4, dCas12j-8 WT D369A;E567A;D658A (bacteriophage (metagenome)); details: HEK293T cells; panel 1c (compare within a panel only); scale: mean GFP / mean GFP of wild type, printed, no background subtraction
T4 sequence: T1 sequence with R157E, R258E

**Q.** Which binding signal [1] does the source give for “CUUUCAAGACUAAUAGAUUGCUCCUUACGAGGAGACACUCCCUAUCAGUGAUAGAG / TTNACTCCCTATCAGTGATAGAG / CTCTATCACTGATAGGGAGTNAA [TetO]” here?
**A.** The binding signal was 2.16.

**Q.** What about the binding signal [2] of the same sequence?
**A.** Its binding signal is 2.83.

**Q.** What about the binding signal [3] of the same sequence?
**A.** The binding signal was 1.56.

**Q.** And the binding signal [4]?
**A.** Its binding signal is 1.
